In patent US20200308299A1, “ANTI-GPC-1 ANTIBODY” (National University Corporation Kochi University, priority 2017, published 2020):

How the values were obtained:
[1] = test system: TE14 cells; test: ADC assay combining anti-GPC-1 antibody and MMAF binding secondary antibody, TE14 cells; assay type: cell-based; conditions: primary antibody plus MMAF secondary antibody
Protocol: FIG. 1 depicts a schematic diagram of an ADC used in an assay. This Example used a secondary antibody (MORADEC) to the anti-GPC1 antibody made in Example 1, to which an anticancer agent (MMAF) was bound via a linker.
2000 TE14 cells were added to a 96-well plate at 80 μl. The cells were cultured overnight at 37° C. in a 5% CO2 incubator. The next day, 10 μl of an anticancer agent bound secondary antibody and 10 μl of a primary antibody concentrated 10-fold relative to the final concentration was added to each well, so that the total amount was 100 μl. The cells were cultured for 6 days at 37° C. in a 5% CO2 incubator. The cell viability was measured by using a CellTiter-Glo Luminescent Cell Viability Assay reagent to detect the amount of ATP. RPMI1640+10% FBS+1% PS was used as the medium. The final concentrations of the primary antibody were 0, 0.004, 0.0156, 0.0625, 0.25, and 1.0 nM. 2 μg/ml of Fab-aMFc-CL-MMAF (model number: AM202AF-50, Moradec) was used as the secondary antibody.

[2] = test system: DU145 cells; test: ADC assay combining anti-GPC-1 antibody and MMAF binding secondary antibody in DU145 cells; assay type: cell-based; conditions: primary antibody plus MMAF secondary antibody, 3 days
Protocol: 2000 DU145 cells were added to a 96-well plate at 80 μl. The cells were cultured overnight at 37° C. in a 5% CO2 incubator. The next day, 10 μl each of anticancer agent binding secondary antibody (2 μg/ml) and primary antibody concentrated 10-fold relative to the final concentration was added to each well, so that the total amount was 100 μl. The cells were cultured for 3 days at 37° C. in a 5% CO2 incubator. The cell viability was measured by using a CellTiter-Glo Luminescent Cell Viability Assay reagent to detect the amount of ATP. RPMI1640+10% FBS+1% PS was used as the medium. The final concentrations of the primary antibodies were […]. 2 μg/ml of Fab-aMFc-CL-MMAF (model number AM202AF-50, Moradec) was used as the secondary antibody. The EC50 value was analyzed with GraphPad Prism 6. The same experiment was conducted using 4000 MDA-MB231 cells as the control.

B1: clone 01a017: anti-human Glypican-1 antibody, heavy chain SEQ ID NO: 138, light chain SEQ ID NO: 140 (antibody)
heavy: MKHLWFFLLLVAAPRWVLSEVQLQQSGGELVRPGTSVKMSCKAAGYTFTNYWIGWVKQRPGHGLEWIGDLYPGGGYTHYNEKFKGKATLTADTSSSTAYMQLSSLTSEDSAIYYCARERVYFDGSRYFDVWGAGTTVTVSSAKTTAPSVYPLAPVCGDTTGSSVTLGCLVKGYFPEPVTLTWNSGSLSSGVHTFPAVLQSDLYTLSSSVTVTSSTWPSQSITCNVAHPASSTKVDKKIEPRGPTIKPCPPCKCPAPNLLGGPSVFIFPPKIKDVLMISLSPIVTCVVVDVSEDDPDVQISWFVNNVEVHTAQTQTHREDYNSTLRVVSALPIQHQDWMSGKEFKCKVNNKDLPAPIERTISKPKGSVRAPQVYVLPPPEEEMTKKQVTLTCMVTDFMPEDIYVEWTNNGKTELNYKNTEPVLDSDGSYFMYSKLRVEKKNWVERNSYSCSVVHEGLHNHHTTKSFSRTPGK
light: MRLLAQLLGLLMLWVPGSSGSIVMTQTPKFLPVSAGDRVTMTCKASQSVGNNVAWYQQKPGQSPKLLIYYASNRYTGVPDRFTGSGSGTDFTFTISSVQVEDLAVYFCQQHYSSPWTFGGGTKLEIKRADAAPTVSIFPPSSEQLTSGGASVVCFLNNFYPKDINVKWKIDGSERQNGVLNSWTDQDSKDSTYSMSSTLTLTKDEYERHNSYTCEATHKTSTSPIVKSFNRNEC
Q: B1 was tested. Which “EC50 values against TE14 cells” value [1] did it give?
A: Its value is “excellent EC50 values”.

Q: And the “EC50 values against DU145 cells” value [2]?
A: Its value is “excellent EC50 values”.
